Measurements from publication PMC10532153, “Interactions of the N- and C-Terminal SH3 Domains of Drosophila Drk with the Proline-Rich Peptides from Sos and Dos” (International Journal of Molecular Sciences, 2023).

Legend:
[1] = biological target: T1, N-terminal SH3 domain of Drosophila Drk (Drk-NSH3) (Drosophila, UniProt Q08012 1-59); assay: NMR titration; 2D 1H-15N HSQC of 15N-labelled Drk-NSH3 (0.3 mM), peptide added stepwise up to protein:peptide 1:8; 20 mM KH2PO4/K2HPO4 pH 7.4, 100 mM KCl, 1 mM DTT, 0.05% NaN3, 10% D2O; 25 °C; CSPs fitted to a conformational selection model (Kd and Kf), bootstrap 1000 iterations; settings: both partners purified
T1 construct: Downstream receptor kinase (Drk), Drosophila homologue of GRB2, 211 residues; N-terminal SH3 domain, residues 1-59; Isolated domain is in equilibrium between a folded and an unfolded state; source: E. coli BL21 (DE3) star, pET-3a, uniformly 15N-labelled, purified (DEAE sepharose, Superdex 75, Resource Q)

[2] = biological target: T2, C-terminal SH3 domain of Drosophila Drk (Drk-CSH3) (Drosophila, UniProt Q08012 153-211); assay: NMR titration; 2D 1H-15N HSQC of 15N-labelled Drk-CSH3 (0.3 mM), peptide added stepwise up to protein:peptide 1:8; NMR buffer (20 mM KH2PO4/K2HPO4 pH 7.4, 100 mM KCl, 1 mM DTT, 0.05% NaN3); 25 °C; CSPs fitted to a single-binding model, bootstrap 1000 iterations; settings: both partners purified
T2 construct: Downstream receptor kinase (Drk), Drosophila homologue of GRB2, 211 residues; C-terminal SH3 domain; the solution structure PDB 7Y4N is of this domain
T2 sequence (Q08012 153-211): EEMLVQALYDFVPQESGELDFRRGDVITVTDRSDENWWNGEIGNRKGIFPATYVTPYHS

T1 sequence (Q08012 1-59): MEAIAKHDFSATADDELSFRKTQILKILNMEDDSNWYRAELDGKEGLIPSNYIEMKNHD

B1: Dos-S2 peptide (Daughter of Sevenless residues 690-702) (peptide)
peptide: GPPSVDRKCKPNA
notes: Daughter of Sevenless (Dos), Drosophila, proline-rich motif PxxxRxxKP in the C-terminal unstructured region, residues 690-702; Thirteen residues; the nine-residue peptide of the earlier study extended by two residues at each end; also called "longer" Dos-S2; source: synthetic peptide, bought: Eurofins Genomics
B1 was tested, and the Kd [1] was 242 ± 11.6 µM and the Kd [2] was 250 ± 21.5 µM.
